# Laboratory results reported in publication PMC12921663, “NanoBondy Reaction through NeissLock Anhydride Allows Covalent Immune Cell Decoration” (Bioconjugate Chemistry, 2026).
# T1: CD45d1d2 (d1 and d2 domains of human CD45 linked to an AviTag) (Homo sapiens, biotin (site-specific, on the AviTag); N-linked glycosylation)
# T1 construct: CD45, human, extracellular domains d1 and d2; Construct limits may stand in the Supporting Information; also called biotinylated human CD45 domains 1 and 2; source: Expi293F cells, purified
# T1 chain: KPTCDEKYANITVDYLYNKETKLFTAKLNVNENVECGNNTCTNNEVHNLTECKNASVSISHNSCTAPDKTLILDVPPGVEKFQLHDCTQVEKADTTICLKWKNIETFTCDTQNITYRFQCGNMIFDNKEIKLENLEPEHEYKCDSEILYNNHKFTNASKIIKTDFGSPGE
# Assays:
# [1] = molecular target: T2, endogenous human CD45 at the cell surface (Homo sapiens, UniProt P08575-4); test: flow cytometry on cells; nanobodies incubated with Expi293F, NK92 or YTS cells; detected with anti-VHH-Alexa Fluor 647; settings: one partner purified
# T2 construct: CD45, human, endogenous; also called CD45RO; source: endogenous, on YTS and NK92 cells and on primary human CD8+ T cells
# [2] = molecular target: T1, CD45d1d2 (d1 and d2 domains of human …); test: ELISA; nanobodies coated on a plate, incubated with the indicated concentrations of biotinylated CD45d1d2; colorimetric detection (absorbance at 450 nm); settings: both partners purified
# T2 sequence (P08575 other isoform, or with tags, fused parts or gaps): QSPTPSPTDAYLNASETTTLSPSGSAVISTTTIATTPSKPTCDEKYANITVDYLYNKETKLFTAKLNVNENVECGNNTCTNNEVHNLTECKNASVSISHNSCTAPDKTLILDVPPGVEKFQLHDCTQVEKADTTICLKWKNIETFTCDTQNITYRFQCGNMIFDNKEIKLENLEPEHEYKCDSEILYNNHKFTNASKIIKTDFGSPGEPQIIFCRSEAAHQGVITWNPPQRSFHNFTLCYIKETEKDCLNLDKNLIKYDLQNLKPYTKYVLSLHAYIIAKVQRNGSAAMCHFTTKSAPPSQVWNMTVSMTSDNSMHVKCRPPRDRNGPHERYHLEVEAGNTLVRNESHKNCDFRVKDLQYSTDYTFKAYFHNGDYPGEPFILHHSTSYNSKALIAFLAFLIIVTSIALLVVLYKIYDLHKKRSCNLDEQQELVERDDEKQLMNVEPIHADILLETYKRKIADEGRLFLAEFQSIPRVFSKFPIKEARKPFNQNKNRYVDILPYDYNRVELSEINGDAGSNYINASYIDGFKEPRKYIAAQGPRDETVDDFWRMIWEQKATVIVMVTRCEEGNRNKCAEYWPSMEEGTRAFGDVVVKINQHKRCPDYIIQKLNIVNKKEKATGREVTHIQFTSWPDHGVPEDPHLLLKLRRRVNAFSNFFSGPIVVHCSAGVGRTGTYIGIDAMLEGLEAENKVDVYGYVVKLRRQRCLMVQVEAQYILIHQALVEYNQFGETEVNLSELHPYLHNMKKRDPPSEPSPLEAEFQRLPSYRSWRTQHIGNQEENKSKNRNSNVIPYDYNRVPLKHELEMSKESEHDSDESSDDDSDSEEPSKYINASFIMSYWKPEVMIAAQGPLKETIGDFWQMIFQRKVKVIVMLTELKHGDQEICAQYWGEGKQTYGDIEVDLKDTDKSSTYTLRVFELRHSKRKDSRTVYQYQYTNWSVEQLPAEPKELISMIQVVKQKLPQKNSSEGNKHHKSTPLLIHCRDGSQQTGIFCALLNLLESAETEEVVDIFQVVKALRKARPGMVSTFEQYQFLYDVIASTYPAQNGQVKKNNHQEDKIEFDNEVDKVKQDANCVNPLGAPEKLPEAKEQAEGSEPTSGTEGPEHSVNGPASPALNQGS
binder,measurement,setting,value
"anti-CD45 nanobody 2H5 (VHH, VHH 2H5 against the d1d2 region of human CD45, from llama immunization; the source of the nanobodies is a cited earlier work) VHH: QVQLQESGGGLVQTGGSLTLSCVASGGTFSSYAMGWFRQAPGKEREFVAAIGGSGDSTYYADSVKGRFTISRDNAKNSVYLQMNSLKPEDTAVYYCQADPTMFHKLYYGINPNEYDYWGQGTLVTVSS",binding result,[1],binds
same,binding result,[2],binds
